Tested on: MS2 coat protein
Assay: apparent KD of MS2 coat protein; higher = weaker reporter binding
Settings: Eterna round: R107
Method in brief: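 For every design, apparent KD is the median of normalised binding-curve fits from its clusters. The RNA switches were transcribed on-chip from Illumina sequencing clusters and titrated with SNAP-549-labelled MS2 coat protein (twofold steps, 0.7 or 1.5 nM to 3 µM; 0.8–1.5 h to 10–20 min per step). Titrations used 100 mM Tris-HCl pH 7.5, 80 mM KCl, 4 mM MgCl2, without or with constant ligand.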

[1] = input ligand: theophylline 20 uM
[2] = input ligand: theophylline 2 mM
[3] = input ligand: tryptophan 2.4 mM

Row | Sequence | apparent KD of MS2 coat protein (input ligand: arginine 13.2 mM) | apparent KD of MS2 coat protein [1] | apparent KD of MS2 coat protein [2] | apparent KD of MS2 coat protein [3] | apparent KD of MS2 coat protein (input ligand: none)
1 | GGGUCAGGCGCGGCCGCCACUGCGGUGAUGUGACAUGAGGAUCACCCAUGUUGUCAUGUGGCACAUAGGACCGGGUGCCUGGCCC [#1 Exclusion - Tryptophan B Attempt #6 (HarryS)] | 28.3 nM | 50.2 nM | 33.8 nM | – | –
2 | GGGUGCGGGAUAGAUACCAGUGCCUUAAAAUAGGCACAUGAGGAUCACCCAUGUACCGGGCGCCCUUGGCAGCUAGUACCAUCCA [Edanrele] | 93.9 nM | 190 nM | – | 147 nM | –
3 | GGGUGUGAUCCGGAUACCAGUGAACAUGAGGAUCACCCAUGUGACCUGAGAUCGGCUCUUCACCCUUGGCAGCCGCGGUCGCAGG [Same State Theophylline B GF14] | 11.4 nM | 18.6 nM | 10.7 nM | 10 nM | 11.5 nM
4 | GGUAUGUAUUCGGAAACGAAUGCAUACCAACGAGGACCGGUACGGCCGCCACUCGGCGGCGAUCAACAUGAGGAUCACCCAUGUA [Ex Tryptophan A 3] | 26.2 nM | 43.7 nM | 42.4 nM | – | –
5 | GGUCUGUGGAGCGAUACCAGCUUGAGUGUACUGGCCAGGUACAUGAGGAUCACCCAUGUAAGCCCUUGGCAGCGCUCCAGAGACC [#1 Exclusion - Theophylline B Attempt #17 (HarryS)] | 7.42 nM | 13.8 nM | 31.5 nM | 10.9 nM | 9.29 nM
6 | GGUGACUGCAUGUGGAAUUAAGGUAGGGAAGGAGCGCGGUAAGACGCAGGUAGGUCGCCCUACAUGAGGAUCACCCAUGUGGUGU [Beenmaer] | 114 nM | 135 nM | 500 nM | 36.5 nM | 121 nM
7 | GGUGAUCCGUAUCACCGGAUCACCGGUGAUACCAGCAUCGAAAGAUGCCCUUGGCAGCACCAACAUGAGGAUCACCCAUGUAAUA [(M)'-(T)'-(M)''-(T1)-(T2)-(M1)-(M2)_Design6b] | 69.6 nM | 62.4 nM | – | 143 nM | –
8 | GGUGGCGUGACGGAUACCAGCCACCACCGUUAGACCACAUGAGGAUCACCCAUGUUGGGUGGCCCUUGGCAGCUGUCGUGCGGCG [#1 Same State - Theophylline B Attempt #18 (HarryS)] | 140 nM | 250 nM | 113 nM | 337 nM | 377 nM
9 | GGUGGCUCCAUCGAUACCAGCCACCACCGAUAGACCACAUGAGGAUCACCCAUGUUGGGUGGCCCUUGGCAGCGGUGAAGCUGCC [#1 Same State - Theophylline B Attempt #4 (HarryS)] | 44.1 nM | 416 nM | 34.5 nM | 657 nM | 304 nM
10 | GGUUGGUGUAGAGAUAUAUUGAUUACUGAAGGAGCGGGAAGAAACCCAGGUAGGUCGCAGAGAUCCACAUGAGGAUCACCCAUGU [!0.L] | 26.7 nM | 49.5 nM | 59.3 nM | 27.5 nM | 38.6 nM
11 | GGUUGGUUUAUAUAUAGAUUGAUUACUGAAGGAGCGGGAAAUAACCCAGGUAGGUCGCAGAGAUCCACAUGAGGAUCACCCAUGU [!0.I] | 34.2 nM | 50.6 nM | 53 nM | 42.9 nM | 39.5 nM
12 | GUAUGGAAACAUACUAGGGUAUCAUGAGAUACCAGUACAGAAAUGUACCCUUGGCAGCUCAAGCAUACAUGAGGAUCACCCAUGU [Ex Theophylline A 7] | 15 nM | 22.7 nM | – | 15.8 nM | –
13 | GUAUGGAAACAUACUAGGGUAUCGUGAGAUACCAGUACAGAAAUGUACCCUUGGCAGCUCGCGCAUACAUGAGGAUCACCCAUGU [Ex Theophylline A 9] | 19.4 nM | 26.9 nM | – | 19.7 nM | –
14 | GUUGCACAUGAGGAUCACCCAUGUUUGGAUACCAGUCUCUGUAAUGACCCUUGGCAGCCACCAUAGACGCUUGAGUAGAGCCUGA [theeternabot_sameState_MS2_Theo_A_21] | 14.2 nM | 19.4 nM | – | 15.5 nM | –
15 | GUUUACAUGAGGAUCACCCAUGUCGCCGGCCGAGGACCGGUACGGCCGCCACUCGUCCUAAUGGCACUUGACUUCCCUAUUAAGU [theeternabot_sameState_MS2_Trp_A_33] | 20.4 nM | 31.3 nM | 25.5 nM | – | –
16 | UAAACUACACAUGAGGAUCACCCAUGUGGCCGAGGACCGGUACGGCCGCCACUCGUGUGUUAAUAAAAGAACUGCAAGGUUCUUC [Uslausce] | 76.1 nM | 325 nM | 748 nM | – | –
17 | UAAAUAAUCUGGGUGUAGGUAAUAACAGAUACCAGCCAGAUAACUGGCCCUUGGCAGCUGAAAACAUGAGGAUCACCCAUGUAAA [Mat - Same State Theophlline A - Mod of Eli - D19] | 58.3 nM | 129 nM | 84.6 nM | 57.4 nM | 80.6 nM
18 | UAACAUGAGGAUCACCCAUGUUUAGAUGAACGAGGACCGGUACGGCCGCCACUCGAUAAGUGGAAAGAGCGAGGGAUUGUAUGCU [Same State Trp A GF4] | 12.2 nM | 16.2 nM | 10.3 nM | 11.9 nM | 12.4 nM

From the supplement of paper PMC9170038
